Assay results from paper PMC9776105.

Target: single chain variable fragment (scFv) from the CR3022 antibody with a cysteine-containing linker
Experiment: SPR

What does the source list for “Spike Receptor Binding Domain SARS-CoV-2 (from UniProt P0DTC2) (domain or fragment)”?
SPR response in the specificity test: 4.22 ru; change in Resonance Unit at 50 ng/mL RBD: 1.13 RU; change in Resonance Unit at 100 ng/mL RBD: 3.01 RU; change in Resonance Unit at 150 ng/mL RBD: 3.74 RU; change in Resonance Unit at 200 ng/mL RBD: 3.98 RU
